# Source: the supplement of paper PMC10567573
# B1: SMTNL2 (parent)
# chain: AFTMAENLANCERLIEVEDMMVMG
# B2: TBC1D10A (parent)
# chain: WCLVQICEKYLPGYYSEKLEAIQL
# Variants of: B1
# Assay: protein stability index of a GFP-peptide fusion (GPS, HEK-293T) (PSI 1-6); higher = more stable
# Details: c terminus: a fixed tail appended
# 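Also: lentivirally expressed fusions sorted by FACS into six bins by GFP to DsRed ratio, PSI derived from sequencing read proportions per bin multiplied by bin number.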
row,Variant,protein stability index
1,AFTMDENLANCERLIEVEDMMVMG,3.78
2,AFTMLENLANCERLIEVEDMMVMG,2.48
3,AFTMPENLANCERLIEVEDMMVMG,3.44
4,AFTMHENLANCERLIEVEDMMVMG,2.01
5,AFTMEENLANCERLIEVEDMMVMG,4.16
6,AFTMKENLANCERLIEVEDMMVMG,2.51
7,AFTMMENLANCERLIEVEDMMVMG,2.58
8,AFTMFENLANCERLIEVEDMMVMG,2.07
9,AFTMIENLANCERLIEVEDMMVMG,3.19
10,AFTMGENLANCERLIEVEDMMVMG,3.11
11,AFTMCENLANCERLIEVEDMMVMG,2.27
12,AFTMNENLANCERLIEVEDMMVMG,2.7
13,AFTTAENLANCERLIEVEDMMVMG,3.78
14,AFTYAENLANCERLIEVEDMMVMG,3.13
15,AFTAAENLANCERLIEVEDMMVMG,4.14
16,AFTRAENLANCERLIEVEDMMVMG,3.22
17,AFTEAENLANCERLIEVEDMMVMG,4.4
18,AFTFAENLANCERLIEVEDMMVMG,2.51
19,AFTKAENLANCERLIEVEDMMVMG,3.77
20,AFTLAENLANCERLIEVEDMMVMG,1.63
21,AFTVAENLANCERLIEVEDMMVMG,3.18
22,AFTNAENLANCERLIEVEDMMVMG,3.76

row,Variant,protein stability index
1,AFTCAENLANCERLIEVEDMMVMG,3.13
2,AFTWAENLANCERLIEVEDMMVMG,2.27
3,AFTIAENLANCERLIEVEDMMVMG,2.96
4,AFTDAENLANCERLIEVEDMMVMG,4.08
5,AFTGAENLANCERLIEVEDMMVMG,4.19
6,AFTPAENLANCERLIEVEDMMVMG,3.74
7,AFTSAENLANCERLIEVEDMMVMG,4.04
8,AFTHAENLANCERLIEVEDMMVMG,3.81
9,AFTQAENLANCERLIEVEDMMVMG,4.04
10,AFLMAENLANCERLIEVEDMMVMG,1.77
11,AFWMAENLANCERLIEVEDMMVMG,1.74
12,AFVMAENLANCERLIEVEDMMVMG,1.79
13,AFKMAENLANCERLIEVEDMMVMG,2.03
14,AFRMAENLANCERLIEVEDMMVMG,2.11
15,AFCMAENLANCERLIEVEDMMVMG,1.85
16,AFNMAENLANCERLIEVEDMMVMG,2.42
17,AFSMAENLANCERLIEVEDMMVMG,2.12
18,AFHMAENLANCERLIEVEDMMVMG,2.24
19,AFFMAENLANCERLIEVEDMMVMG,1.71
20,AFQMAENLANCERLIEVEDMMVMG,2.13
21,AFGMAENLANCERLIEVEDMMVMG,2.91
22,AFDMAENLANCERLIEVEDMMVMG,2.85

row,Variant,protein stability index
1,AFMMAENLANCERLIEVEDMMVMG,1.96
2,AFYMAENLANCERLIEVEDMMVMG,2.06
3,AFPMAENLANCERLIEVEDMMVMG,3.15
4,AFEMAENLANCERLIEVEDMMVMG,2.15
5,AFAMAENLANCERLIEVEDMMVMG,2.06
6,AFIMAENLANCERLIEVEDMMVMG,1.72
7,AITMAENLANCERLIEVEDMMVMG,2.27
8,ACTMAENLANCERLIEVEDMMVMG,3.14
9,AKTMAENLANCERLIEVEDMMVMG,3.5
10,AMTMAENLANCERLIEVEDMMVMG,2.08
11,AETMAENLANCERLIEVEDMMVMG,4.17
12,ALTMAENLANCERLIEVEDMMVMG,2.27
13,APTMAENLANCERLIEVEDMMVMG,4.28
14,ARTMAENLANCERLIEVEDMMVMG,2.4
15,AATMAENLANCERLIEVEDMMVMG,3.7
16,AHTMAENLANCERLIEVEDMMVMG,3.48
17,AQTMAENLANCERLIEVEDMMVMG,3.22
18,ASTMAENLANCERLIEVEDMMVMG,3.49
19,ANTMAENLANCERLIEVEDMMVMG,3.95
20,ADTMAENLANCERLIEVEDMMVMG,4.48
21,AWTMAENLANCERLIEVEDMMVMG,2.07
22,ATTMAENLANCERLIEVEDMMVMG,3.88

row,Variant,protein stability index
1,AVTMAENLANCERLIEVEDMMVMG,3.18
2,AGTMAENLANCERLIEVEDMMVMG,4
3,AYTMAENLANCERLIEVEDMMVMG,2.22
4,MFTMAENLANCERLIEVEDMMVMG,1.61
5,FFTMAENLANCERLIEVEDMMVMG,1.86
6,HFTMAENLANCERLIEVEDMMVMG,2.62
7,PFTMAENLANCERLIEVEDMMVMG,3.16
8,IFTMAENLANCERLIEVEDMMVMG,1.76
9,SFTMAENLANCERLIEVEDMMVMG,2.46
10,NFTMAENLANCERLIEVEDMMVMG,2.44
11,RFTMAENLANCERLIEVEDMMVMG,2.84
12,LFTMAENLANCERLIEVEDMMVMG,1.75
13,CFTMAENLANCERLIEVEDMMVMG,1.74
14,KFTMAENLANCERLIEVEDMMVMG,2.58
15,QFTMAENLANCERLIEVEDMMVMG,3.22
16,TFTMAENLANCERLIEVEDMMVMG,1.81
17,VFTMAENLANCERLIEVEDMMVMG,2.06
18,EFTMAENLANCERLIEVEDMMVMG,2.1
19,YFTMAENLANCERLIEVEDMMVMG,2.2
20,DFTMAENLANCERLIEVEDMMVMG,2.47
21,GFTMAENLANCERLIEVEDMMVMG,1.74
22,WFTMAENLANCERLIEVEDMMVMG,1.86

# Variants of: B2
# Assay: as above
# Details: c terminus: a fixed tail appended
row,Variant,protein stability index
1,WCLVQICEKYLPGDYSEKLEAIQL,3.02
2,WCLVQICEKYLPGNYSEKLEAIQL,3.59
3,WCLVQICEKYLPGVYSEKLEAIQL,3.94
4,WCLVQICEKYLPGKYSEKLEAIQL,3.06
5,WCLVQICEKYLPGPYSEKLEAIQL,2.61
6,WCLVQICEKYLPGEYSEKLEAIQL,1.59
